The target of this experiment is GST-tagged ANKRD1 recombinant protein (Homo sapiens (Human), UniProt Q15327). Put plainly: GST pulldown with western blot. Background: Immunoblotting shows a protein as a band on a membrane.
Chain of GST-tagged ANKRD1 recombinant protein (Q15327 whole entry): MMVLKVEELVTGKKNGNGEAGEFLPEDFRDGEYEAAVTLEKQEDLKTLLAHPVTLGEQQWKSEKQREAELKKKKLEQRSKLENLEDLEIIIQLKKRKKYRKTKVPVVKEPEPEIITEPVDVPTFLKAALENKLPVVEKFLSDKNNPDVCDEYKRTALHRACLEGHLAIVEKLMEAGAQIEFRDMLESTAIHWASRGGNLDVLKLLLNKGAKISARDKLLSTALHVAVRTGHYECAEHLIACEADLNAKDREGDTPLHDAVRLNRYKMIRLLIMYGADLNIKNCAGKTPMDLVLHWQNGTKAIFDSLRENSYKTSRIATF

B1: HIS-tagged JUN (truncated form 1-241aa) (protein)
chain: MTAKMETTFYDDALNASFLPSESGPYGYSNPKILKQSMTLNLADPVGSLKPHLRAKNSDLLTSPDVGLLKLASPELERLIIQSSNGHITTTPTPTQFLCPKNVTDEQEGFAEGFVRALAELHSQNTLPSVTSAAQPVNGAGMVAPAVASVAGGSGSGGFSASLHSEPPVYANLSNFNPGALSSGGGAPSYGAAGLAFPAQPQQQQQPPHHLPQQMPVQHPRLQALKEEPQTVPEMPGETPP
As for B1, the binding result was “no binding”.
